The text below walks through data of patent US6570069B1, “Nucleic acids encoding plant inhibitors of apoptosis and transgenic cells and plants expressing them” (priority 2000, dated 2003).

The subject of assay [1] is Bax-induced apoptosis in HEK293 cells. Description: Bax-induced apoptosis in HEK293 cells (co-transfection, DAPI nuclear morphology). The class given is cell-based, human. The note with it: IAP plasmid co-transfected with Bax into 293 cells; % apoptosis 24-36 hours later. The protocol: HEK293 and 293T cells were maintained in DMEM (Irvine Scientific) supplemented with 10% fetal bovine serum, 1 mM L-glutamine and antibiotics. 293 cells (10^6) were co-transfected using Superfect with 0.1 μg Green Fluoresence Protein (GFP) marker plasmid pEGFP (Clontech), 0.25 ug of either pcDNA3-Bax or pcDNA3-Fas, and 1.5 μg of either pcDNA3myc-SfIAP or pcDNA3myc-CpIAP. Alternatively, cells were co-transfected with 0.35 μg pcDNA3-caspase-9-Flag and 2.1 μg of either SfIAP or CpIAP. […] In some cases, lysates were prepared from transfected cells, normalized for total protein content, and analyzed by SDS-PAGE/immunoblotting as described (Deveraux, Q., et al., (1997) supra; Deveraux, Q. L., et al. (1998) supra; Roy, N. et al. (1997) supra; Takahashi, R., et al., (1998), supra.).
Baculoviral IAPs have been reported to protect mammalian cells from some apoptotic stimuli (Hawkins, C. J. et al., (1996) Proc. Natl. Acad. Sci. USA 93, 13786-13790; Hawkins, C. et al., (1998) Cell Death and Differentiation 5, 569-576; Uren, A. G. et al., (1996) Proc. Natl. Acad. Sci. USA 93, 4974-4978). Tests were performed to determine whether SfIAP is also capable of functioning as an apoptosis suppressor in a mammalian cell context. […]
Plasmids encoding various IAPs were co-transfected with Bax or Fas into 293 cells and % apoptosis was determined 24-36 hours later.

The subject of assay [2] is apoptosis induced by AcMNPV p35 mutant virus in Sf-21 cells. The experiment in a line: Rescue of AcMNPV p35-deleted virus in Sf-21 cells (occlusion body formation). The class given is cell-based, Spodoptera frugiperda. The note with it: plasmid co-transfected with AcMNPV p35 mutant viral DNA into Sf-21 cells; observed 72 hrs post-transfection. The protocol:
Insect Sf-21 cells were maintained at 27° C. in Excell 401 media (JHR Bioscience) supplemented with 2.5% fetal bovine serum. vP35del, containing a deletion in the p35 gene, was propagated in TN-368 cells (Clem, R. J., et al., (1991) Science 254, 1388-1390). Plasmids encoding full-length or deletion mutants of SfIAP (1 μg) were co-transfected with 1 μg vP35del viral DNA into Sf-21 cells using Lipofectin from Gibco. Occlusion body formation was observed under light microscopy 3 days post-transfection.
SfIAP was tested to see if it also complements. p35-deficiency, preventing apoptosis by this mutant virus, thereby allowing its replication in insect cells. Plasmids containing full-length SfIAP or fragments of SfIAP comprising the two BIRs or the RING domain were co-transfected with AcMNPV p35 mutant viral DNA into Sf-21 cells. Cells were observed 72 hrs post-transfection. […] Thus, analogous to CpIAP and OpIAP, BIR and RING domains of SfIAP are required in combination for inhibition of apoptosis induced by AcMNPV p35 mutant virus.

B1: SfIAP: cellular IAP cloned from Spodoptera frugiperda, protein of 377 amino acids (SEQ ID NO:3); GST-fusion when recombinant (protein, listed as Spodoptera frugiperda)
chain: MWSCSLPCWNTKKSGLQMDITKVASNGSSSTLTLFKSGSLEAKIRPLAPLMLPTPSYDSNAGSPSLSPSTPCSSSSFSIDKTDNHDTFGFSADTVDMRKEDERMKTFEKWPVSFLSGEQLARNGFYYLGRRDEARCAFCKVEIMRWVEGDDPAKDHQRWAPQCPFVRKLNGTAAADTGSSGQDECGARAAPSGTSPPRMAGPVHPRYASEAARLRSFKDWPRCMRQKPEELAEAGFFYTGQGDKTKCFYCDGGLKDWENHDVPWEQHARWFDRCAYVQLVKGREYVQKVISEACEVSASEAERDVAPARTAEPSPPAEAPENSVDDSKLCKICYAEERNVCFVPCGHVVACAKCALAADKCPMCRRTFQNAVRLYFS
modifications: GST fusion when recombinant; fall armyworm inhibitor of apoptosis protein (SfIAP)
As for B1, in assay [1], the “suppression of Bax-induced apoptosis” value was “inhibited Bax-induced apoptosis”. For the same molecule, the “complementation of p35 deficiency (rescue of mutant virus replication, occlusion body formation)” value in assay [2] is “complemented p35 deficiency”.

B2: CpIAP: baculoviral (CpGV) inhibitor of apoptosis protein; complete ORF expressed myc-tagged or as GST-fusion (protein)
chain: MSDLRLEEVRLNTFEKWPVSFLSPETMAKNGFYYLGRSDEVRCAFCKVEIMRWKEGEDPAADHKKWAPQCPFVKGIDVCGSIVTTNNIQNTTTHDTIIGPAHPKYAHEAARVKSFHNWPRCMKQRPEQMADAGFFYTGYGDNTKCFYCDGGLKDWEPEDVPWEQHVRWFDRCAYVQLVKGRDYVQKVITEACVLPGENTTVSTAAPVSEPIPETKIEKEPQVEDSKLCKICYVEECIVCFVPCGHVVACAKCALSVDKCPMCRKIVTSVLKVYFS
modifications: left off: a dimerising Fc or GST
notes: complete ORF expressed myc-tagged or as GST-fusion
For the molecule B2, the “suppression of Bax-induced apoptosis” value in assay [1] is reported as “inhibited Bax-induced apoptosis”.
